Test results: the supplement of paper PMC10567573

B1: UFD1L (parent)
chain: EAGGRFVAFSGEGQSLRKKGRKP
B2: KCNK9 (parent)
chain: DVPDLQSVCSCTCYRSQDYGGRSV

Variants of: B1
Experiment: protein stability index of a GFP-peptide fusion (GPS, HEK-293T) (PSI 1-6); higher = more stable
Conditions: c terminus: native
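Note: lentivirally expressed fusions sorted by FACS into six bins by GFP to DsRed ratio, PSI derived from sequencing read proportions per bin multiplied by bin number.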

Protein stability index, by site and new letter:
K18: E 1.49 | F 2.3 | H 1.24 | I 3.76 | Q 1.87 | R 1.48 | T 1.97 | V 1.39
K19: A 3.83 | C 2.4 | D 1.74 | E 1.58 | G 3.02 | P 1.07 | Q 2.05 | R 1.68 | T 3.08
G20: A 3.91 | D 2.12 | E 2.78 | H 3.25 | K 4.63 | L 2.04 | M 1.57 | N 1.82 | P 4.77 | Q 3.83 | S 2.12 | V 2.53 | W 1.81
R21: A 4.78 | C 3.45 | G 5.2 | I 3.99 | K 5 | L 2.88 | M 4.38 | N 5.27 | P 4.98 | Q 5.19 | S 2.83 | T 4.35 | V 4.06 | Y 4.7
K22: D 2 | F 2.77 | G 2.15 | I 2.43 | N 2.93 | T 1.45
P23: C 3.15 | I 3.95 | K 4.87 | L 3.73 | M 2.85 | N 2.62 | Q 4.65 | S 3.2 | V 4.09 | W 5.5 | Y 3.01

Variants of: B2
Experiment: as above
Conditions: c terminus: a fixed tail appended

Protein stability index of substitutions, site by site:
S23: A 1.8 | R 1.48 | W 2.53 | C 1.98 | N 2.14 | K 4.09 | Q 2.12 | D 2.1 | I 3.17 | H 1.67
S16: D 1.85 | M 2.21 | K 2.08 | C 2.5 | L 2.87 | N 2.1 | V 1.03 | T 2.18 | H 1.8 | G 1.07 | F 2.78 | I 2.85 | E 1.79 | R 1.65 | Y 2.31
R22: Q 3.22 | L 3.27 | P 2.16 | C 2.38 | A 1.84 | V 2.82 | S 2.2 | T 1.89 | I 1.93 | W 2.4 | Y 1.47 | N 2.6
Y14: P 2.71 | L 1.47 | Q 1.53 | F 2.1 | D 1.92 | I 1.83 | C 1.75 | V 2.38 | M 3.61 | S 2.29 | G 2.42 | H 2.55 | K 2.27 | W 3.24
D1: H 3.67 | G 1.26 | P 2.33 | E 1.44 | M 1.54 | I 1.33 | Q 2.87 | V 1.51 | K 2.23 | A 1.54 | C 1.04 | T 1.86
L5: T 2.12 | F 2.15 | E 3.6 | Y 1.71 | H 1.82 | M 1.79 | Q 2.38 | A 1.63 | D 2.42 | N 2.19 | W 1.71 | S 1.41 | C 1.83 | V 2.4 | G 1.65 | K 1.9 | I 2.54
V8: N 2.5 | R 2.29 | Y 1.86 | T 1.72 | W 1.29 | P 1.77 | G 3.36 | M 1.06 | K 1.68 | I 2 | S 2.06 | E 2.24 | F 2.22 | L 1.59 | H 1.57
D4: C 1.64 | L 1.75 | T 2.48 | F 1.4 | M 2.28 | N 2.07 | K 2.17 | P 2.05 | Y 2.86 | S 1.86 | I 2.81
Y19: R 2.08 | C 1.88 | N 1.71 | D 2.41 | P 1.86 | M 1.83 | T 2.64 | Q 2.44 | S 1.81
Q17: D 2.15 | K 1.86 | E 2.07 | F 1.95 | G 2.21 | P 1.27 | L 3.13 | H 2.14 | A 1.56 | S 2.41 | I 1.87
S10: N 1.47 | P 1.52 | Q 2.25 | T 2.47 | E 2.16 | R 1.33 | Y 1.92 | D 2.79 | K 1.76 | H 1.43
T12: Q 1.65 | M 1.25 | V 2.47 | N 1.62 | F 2.76 | I 1.57 | H 3.13 | C 1.21 | Y 1.94 | K 1.58 | P 2.05 | G 1.52 | A 1.78 | S 1.31
G20: V 1.2 | N 2.03 | H 2.88 | T 1.87 | A 2.24 | D 2.88 | S 2.07 | E 1.97 | I 2.15 | F 1.35 | Q 1.94
P3: D 1.36 | Y 1.4 | M 2.11 | C 2.14 | Q 1.93 | G 1.41 | E 2 | N 1.45 | S 1.99 | K 1.12 | I 2.22 | T 1.73
C13: E 2.85 | A 2.28 | D 2.12 | W 1.75 | V 2.31 | K 1.82 | Q 2.69 | S 2.79 | F 1.14 | G 3.14 | L 1.97 | N 2.53
R15: Q 1.68 | P 2.05 | V 1.28 | D 3.58 | W 2.21 | A 2.07 | L 1.49 | E 2.52 | K 2.08 | G 2.23 | Y 1.98 | C 2.17
S7: D 2.2 | P 1.46 | K 1.96 | Q 2.29 | N 1.38 | H 1.92 | T 2.03 | V 1.56 | R 1.57 | C 1.66 | W 2.48 | F 2.32 | M 1.84
V2: N 2.7 | I 1.78 | H 1.67 | R 2.2 | Y 1.82 | A 1.84 | F 1.69 | K 2.43 | D 1.78 | Q 1.59 | W 1.68 | M 2.31
D18: K 1.65 | V 1.82 | W 1.61 | M 1.63 | T 1.83 | Y 1.56 | E 1.21 | C 1.97 | H 2.85 | Q 1.51
V24: T 2.73 | W 2.42 | D 2.69 | L 2.44 | Y 1.49 | S 1.68 | C 1.49 | K 1.45
Q6: W 2.57 | S 1.59 | A 1.65 | D 2.27 | N 1.82 | G 1.63 | R 2.73 | T 1.85 | P 1.5
C9: S 3.05 | P 1.67 | Q 2.03 | N 2.66 | K 2.29 | A 2.7 | Y 1.82 | F 2.01
C11: D 4.15 | P 3.8 | W 2.59 | R 2.34 | S 3.3 | E 4.65 | Y 3.6 | T 2.81
G21: V 2.16 | H 1.9 | Y 2.08 | L 1 | D 2.22 | A 1.85 | F 1.81 | S 3.41
